# Reference: patent publication US20250188143A1, “COMBINED GENE AND RADIO THERAPY FOR THE TREATMENT OF CANCER” (FUNDACION PARA LA INVESTIGACION MEDICA APLICADA, priority 2022, published 2025)
# T1: murine STING (Mus musculus, UniProt Q3TBT3)
# T1 sequence (Q3TBT3 1-378): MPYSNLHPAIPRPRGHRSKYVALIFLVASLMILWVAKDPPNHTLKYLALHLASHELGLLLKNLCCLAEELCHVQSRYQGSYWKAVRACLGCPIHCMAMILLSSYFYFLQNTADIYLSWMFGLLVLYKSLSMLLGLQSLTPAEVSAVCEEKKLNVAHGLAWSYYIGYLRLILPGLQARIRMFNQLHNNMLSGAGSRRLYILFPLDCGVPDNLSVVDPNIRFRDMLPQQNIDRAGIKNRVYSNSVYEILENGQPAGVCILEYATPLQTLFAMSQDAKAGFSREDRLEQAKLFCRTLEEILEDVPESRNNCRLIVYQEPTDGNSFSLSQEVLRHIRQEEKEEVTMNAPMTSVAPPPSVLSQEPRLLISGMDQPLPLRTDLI
# B1: IFN-β-promoter: full length IFN-β-promoter according to SEQ ID NO: 25 (nucleic acid, listed as Mus musculus)
# DNA: CCAGGATGTGGGGTTCTCTCCCAAAGGGAGCTATGGCCCATTGATGTGCCATTTCTCTTATAGTACACTATTGTAAGCCCCCTGGGAGCTCACAGAGACCCTCTCCCACCATCCCACTATTTCAAAGGGCAGCAGCTGTGCCATCCTTTCAGGATGAGCAGCTACTCTGCCTGGCTTTTCAGTGGACACTTTGGCTGTTTGAGAGTTCTTTTATCTTCAGGGCTGTCTCCTTTCTGTTCTTCTCTCCTGGATATTTCTCTTCCTTTGCTCCAGCAATTGGTGAAACTGTACAAGATTTTATAAATCCTTAGTTTGTATATATTTTAACCCAGTACATAGCATATAAAATAGCCAGGAGCTTGAATAAAATGAATATTAGAAGCTGTTAGAATAAGAGAAAATGACAGAGGAAAACTGAAAGGGAGAACTGAAAGTGGGAAATTCCTCTGAGGCAGAAAGGACCATCCCTTATAAATAGCACAGGCCATGAAGGAAGATCATTCTCACTGCAGCCTTTGACAGCCTTTGCCTCATCTTGCAGGTAGCAGCCGACACCAGCCTGGCTTCCATC
# modifications: misc_feature 1..571 IFNb1-promoter
# B2: IFN-γ: exogenously added interferon, 1,000 IU (protein, UniProt P01579 24-161, looked up)
# Interferon gamma: QDPYVKEAENLKKYFNAGHSDVADNGTLFLGILKNWKEESDRKIMQSQIVSFYFKLFKNFKDDQSIQKSVETIKEDMNVKFFNSNKKKRDDFEKLTNYSVTDLNVQRKAIHELIQVMAELSPAAKTGKRKRSQMLFRG
# B3: CXCL10-promoter: CXCL10 promoter according to SEQ ID NO: 24 (nucleic acid, listed as Mus musculus)
# DNA: TCTAACTGTTCACTAAGTTGTATAGACTTTGGATCTGGCTAAATTTGGCGTGTGATTTTTTTTTAAAGTTTATTCCAAGTATTTTATAATAAAGCATATGAAGTAAAAAGCAAAAATAAACAGTGTAAACACAACAAATGTAAAAACCATGGTTAGAACCTGACTTAGATATCAGTTCTGTGTTTTATTTATGAGAGAAGGAAGATGAGAATTAAAGCCATTTCCAGACTTATTCTGCAAGGCACTGCATCTGATTTCTCAAACAGCTCACGCTTTGGAAAGTGAAACTTACCTCACTCGTTAAAAATTAAAAGGAGCACAAGAGGGGAGAGGGAAATTCCAAGTTCATGGGTCACAATAAACACAAGCAATGCCCTCGGTTTACAGGGGACTTCCCTCGGGTTGCGGAGCCTTGCTGAGTCATCTCCAAAGTCAGCCAATCAGGACTCAGGGAGGGAAACTCTTTGCAGATAAATACTCCTCAGCAGCCGGCACTCGAGAAGCGCTTCATCCACCGCTGAGAGACATCCCGAGCCAACCTTCCGGAAGCCTCCCCATCAGCACC
# modifications: misc_feature 1..565 CXCL10-promoter
# B4: short STAT-promoter: 4 STAT motifs separated by 6 nucleotides according to SEQ ID NO: 26 (nucleic acid)
# DNA: ATCTCTGCGATGAACCTCACTTCGCTAGAAATCTCTGCGATGAACCTCACTTCGCTAGAAATATCTCTGCGATGAACCTCACTTCGCTAGAAATCTCTGCGATGAACCTCACTTCGCTAGAAGTGCCTCTTATGATCTGGATCTCGAGCCATGGTCGAGGCCTGTAGGCGTGTACGGTGGGAGGCTTATATAAGCAGAGCTC
# modifications: misc_feature 1..202 STATx4
# B5: CXCL9-promoter: CXCL9 promoter according to SEQ ID NO: 23 (nucleic acid, listed as Mus musculus)
# DNA: GACACAGACATCTCGTGAAACATCTGGAAAAGGTAGCAGGGAACGGGACAGCAGTAGCTTATGCAACTAATCTAGCAATTACAATGATAGGAAACTGTAGCCACGGTGAGACGAAATGGATTTACCCTCAACAAATTAAGAAGCTTTGACTTGTGAGGAAAGGCAGTTTGAGTCGCCATATAGTGTCATGTCCCACGTGGGAAGTACATCTCCAACCTTCATTGTACAACATTAATATAGTCATTGTATAATCTATTCCACATCCAGGTAGCAACTTTGCCTGGGGGTGGTTTCACATCCCTTACTATAAACTCCCCGTTTATGTGAAATGGAAGTAGAACATGCAGAAATTCCCTGGGATCTGAGAGTAGGGTTTTCCCCAGGACGATCAATTTGTGGTTAGTTTAGTTCTTCTAGGTCAGCTGAGGAGACCAGCCAATCAGAGACGGGAAGGAAAAGGGATTTCCTAAATAAATATGATCCCCAAGAACATGCTCTCTAAAGACATTCTCGGACTTCACTCCAACACAGTGACTCAATAGAACTCAGCTCTGCC
# modifications: misc_feature 1..556 CXCL9-promoter
# B6: ISREx4-promoter: 4 ISRE motifs separated by 20 nucleotides according to SEQ ID NO: 12 (nucleic acid)
# DNA: ATCTCTGCGATGAACCTCACAGTTTCGCTTTCTATCTCTGCGATGAACCTCACAGTTTCGCTTTCTATCTCTGCGATGAACCTCACAGTTTCGCTTTCTATCTCTGCGATGAACCTCACAGTTTCGCTTTCTGTGCCTCTTATGATCTGGATCTCGAGCCATGGTCGAGGCCTGTAGGCGTGTACGGTGGGAGGCTTATATAAGCAGAGCTC
# modifications: misc_feature 1..212 ISREx4
# Assays:
# [1] = target: T1, murine STING; settings: cited from earlier work
# [2] = system: B16 cells; assay: Radiation and IFN signaling on activation of the ISREx4 promoter (luciferase); assay type: cell-based, murine; settings: B16 cells transduced with AAV8-ISREx4-LucmiR122T
# Procedure: To this end, B16 cells received 8 Gy or 0 Gy as described above and then were transduced with AAV8-ISREx4-LucmiR122T (1×10^5 viral genomes/cell) and 48 h later 1,000 IU of either IFN-α, IFN-β or IFN-γ were added to the culture and luciferase activity was measured 48 h later as described above.
# [3] = system: MC38 cell lines stably expressing hSTINGmut; assay: scIL-12 mRNA and protein expression under STING-activity dependent promoters; assay type: cell-based, murine; settings: for scIL-12 mRNA or protein expression upon DMXAA: DMXAA 50 μg/mL
# Source text: The CXCL9-promoter and the CXCL10-promoter from experiment 2, and a full length IFN-β-promoter (IFN-β according to SEQ ID NO: 25) were used for the following experiment. To this end, lentiviral vectors encoding murine scIL-12 under the control of these three different promoters were constructed. […] After the indicated time points, cells were harvested. The cell lysate was used to measure scIL-12 mRNA expression by qPCR as described before (example 1, experiment 1), whereas the supernatant was used to measure secreted scIL-12 protein in NUNC MaxiSorp flat-bottom 96-well plates using an ELISA assay kit (OptEIA, Mouse IL-12 (p70), BD Biosciences, San Diego, CA USA), following manufacturer's instructions.
# [4] = system: HEK293T cells stably expressing hSTINGmut; assay: Luciferase activity under synthetic promoters; assay type: cell-based, human; settings: for luciferase activity upon DMXAA (inducibility): DMXAA 50 μg/mL; for luciferase activity in the absence of DMXAA (leakage): vehicle
# Source text: (§1) Seven different promoters were generated, namely short STATx4 (4 STAT motifs separated by 6 nucleotides according to SEQ ID NO: 26), IRSF3×4 (4 IRSF3 motifs separated by 20 nucleotides according to SEQ ID NO: 27), short IRSF3×4 (4 IRSF3 motifs separated by 6 nucleotides according to SEQ ID NO: 28), ISREx4 (4 ISRE motifs separated by 20 nucleotides according to SEQ ID NO: 12), short ISREx4 (4 ISRE motifs separated by 6 nucleotides according to SEQ ID NO: 13), NFκBx4 (4 NFκB motifs separated by 20 nucleotides according to SEQ ID NO: 29) and short NFκBx4 (4 NFκB motifs separated by 6 nucleotides according to SEQ ID NO: 30). […] In addition, a plasmid containing the luciferase sequence under the control of the murine IFN-β-promoter (mIFN-β) and a plasmid containing the luciferase sequence under the control of CXCL10-promoter were used as controls. Either MC38 cells or human HEK293T cells, both which stably expressed hSTINGmut as described above (example 1), were transfected with the indicated plasmids using Lipofectamine3000 according to the manufacturers protocol, whereas a negative control was mock-transfected (Basic).
# [5] = system: MC38 cell lines stably expressing hSTINGmut; assay: Luciferase activity under chemokine promoters; assay type: cell-based, murine; settings: for luciferase activity upon DMXAA: DMXAA 50 μg/mL, 3 or 6 h, compared to the IFN-β promoters; for luciferase activity in the absence of DMXAA (leaky expression): vehicle
# Procedure: The CXCL9-promoter (CXCL9 according to SEQ ID NO: 23) and the CXCL10-promoter (CXCL10 according to SEQ ID NO: 24) were used for the following experiment. To this end, lentiviral vectors encoding luciferase under the control of these two different promoters were constructed. […] In addition, the lentiviral vectors encoding the short IFN-β A promoter, the short IFN-β B promoter, the short IFN-β C promoter described in experiment 1 were used as a comparison. […] After another 3 or 6 h, cells were harvested and luciferase activity measured as described in experiment 1.
# [6] = system: MC38 cells stably expressing hSTINGmut; assay: Luciferase activity under synthetic promoters; assay type: cell-based, murine; settings: DMXAA 50 μg/mL
# Source text: as §1
# [7] = 1,000 IU interferon alone (0 Gy)
# [8] = interferon together with radiation 8 Gy
molecule,measurement,setting,value
"O=C(O)Cc1cccc2c(=O)cc(-c3ccccc3)oc12 [FAA, flavone-8-acetic acid]",activation of murine STING,[1],activated
IFN-α,luciferase activity,[2]; [7],significantly increased luciferase activity
same,luciferase activity,[2]; [8],induced luciferase activity dramatically
B1,scIL-12 mRNA or protein expression upon DMXAA,[3],poor
B2,luciferase activity,[2]; [7],significantly increased luciferase activity
same,luciferase activity,[2]; [8],induced luciferase activity dramatically
B3,luciferase activity upon DMXAA (inducibility),[4],highest inducibility
same,luciferase activity in the absence of DMXAA (leakage),[4],considerable leakage
same,scIL-12 mRNA or protein expression upon DMXAA,[3],highly upregulated
same,scIL-12 production in the absence of DMXAA (leakage),[3]; vehicle,significant leakage
same,luciferase activity upon DMXAA,[5],significantly higher luciferase activities
same,luciferase activity in the absence of DMXAA (leaky expression),[5],significant luciferase activity
B4,luciferase activity upon DMXAA (inducibility),[6],poor inducibility
B5,scIL-12 mRNA or protein expression upon DMXAA,[3],poor
same,luciferase activity upon DMXAA,[5],significantly higher luciferase activities
same,luciferase activity in the absence of DMXAA (leaky expression),[5],significant luciferase activity
B6,luciferase activity upon DMXAA (inducibility),[4],highest inducibility
same,luciferase activity in the absence of DMXAA (leakage),[4],undetectable leakage
